# Results published in article PMC8115485 (Nature Communications, 2021).
# T1: HisH (Thermotoga maritima, UniProt Q9X0C8, C84S)
# T1 sequence (Q9X0C8 1-201 C84S): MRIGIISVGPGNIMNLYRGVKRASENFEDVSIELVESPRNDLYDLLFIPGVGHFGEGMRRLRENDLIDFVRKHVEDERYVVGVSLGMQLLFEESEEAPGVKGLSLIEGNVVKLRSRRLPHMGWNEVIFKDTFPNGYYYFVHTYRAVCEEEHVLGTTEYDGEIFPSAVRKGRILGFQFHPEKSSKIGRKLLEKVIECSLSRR
# T1 sequence (Q9X0C6 1-253 partner): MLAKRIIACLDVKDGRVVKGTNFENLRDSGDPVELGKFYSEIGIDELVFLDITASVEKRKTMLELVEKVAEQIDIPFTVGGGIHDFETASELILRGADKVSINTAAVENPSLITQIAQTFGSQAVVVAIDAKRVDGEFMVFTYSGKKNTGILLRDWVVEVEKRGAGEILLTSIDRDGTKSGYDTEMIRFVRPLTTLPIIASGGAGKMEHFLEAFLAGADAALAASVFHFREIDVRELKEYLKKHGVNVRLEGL
# T2: HisF (Thermotoga maritima, UniProt Q9X0C6)
# T2 construct: HisF-wt without tag, in the HisFH-hC84A complex; with HisH (hC84A)
# T2 sequence (Q9X0C6 1-253): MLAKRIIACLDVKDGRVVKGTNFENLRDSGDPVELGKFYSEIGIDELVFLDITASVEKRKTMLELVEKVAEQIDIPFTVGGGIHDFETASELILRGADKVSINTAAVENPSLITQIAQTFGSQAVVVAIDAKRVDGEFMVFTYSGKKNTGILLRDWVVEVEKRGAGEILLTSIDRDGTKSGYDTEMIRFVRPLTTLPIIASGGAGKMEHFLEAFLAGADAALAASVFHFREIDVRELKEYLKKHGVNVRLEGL
# T2 sequence (Q9X0C8 1-201 C84A partner): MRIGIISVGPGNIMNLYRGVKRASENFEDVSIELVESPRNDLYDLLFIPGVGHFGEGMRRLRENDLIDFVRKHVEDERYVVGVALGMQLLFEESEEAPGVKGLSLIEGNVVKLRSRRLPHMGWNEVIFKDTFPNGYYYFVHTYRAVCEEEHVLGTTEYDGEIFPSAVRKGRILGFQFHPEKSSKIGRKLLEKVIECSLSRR
# T3: HisH (Thermotoga maritima, UniProt Q9X0C8)
# T3 sequence (Q9X0C8 1-201): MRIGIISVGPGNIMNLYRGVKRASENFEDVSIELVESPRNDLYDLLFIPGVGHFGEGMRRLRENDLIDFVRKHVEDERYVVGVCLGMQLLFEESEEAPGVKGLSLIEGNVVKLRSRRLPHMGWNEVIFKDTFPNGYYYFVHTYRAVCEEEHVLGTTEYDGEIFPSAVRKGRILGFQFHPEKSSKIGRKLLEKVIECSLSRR
# T3 sequence (Q9X0C6 1-253 partner): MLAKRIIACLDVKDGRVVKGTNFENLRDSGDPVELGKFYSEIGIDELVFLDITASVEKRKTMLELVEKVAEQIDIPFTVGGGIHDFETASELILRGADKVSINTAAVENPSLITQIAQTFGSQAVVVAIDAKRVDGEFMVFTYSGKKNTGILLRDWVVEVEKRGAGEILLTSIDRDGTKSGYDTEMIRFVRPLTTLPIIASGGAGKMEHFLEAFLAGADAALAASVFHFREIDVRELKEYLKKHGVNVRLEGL
# T4: HisH (Thermotoga maritima, UniProt Q9X0C8, C84A)
# T4 construct: HisFH-hC84A complex; with HisF
# T4 sequence (Q9X0C8 1-201 C84A): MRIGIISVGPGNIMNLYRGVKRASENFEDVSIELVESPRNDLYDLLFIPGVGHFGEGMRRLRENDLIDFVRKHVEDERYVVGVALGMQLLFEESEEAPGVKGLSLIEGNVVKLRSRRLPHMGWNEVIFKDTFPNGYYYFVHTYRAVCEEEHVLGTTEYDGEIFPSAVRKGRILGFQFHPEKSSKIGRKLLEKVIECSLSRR
# T4 sequence (Q9X0C6 1-253 partner): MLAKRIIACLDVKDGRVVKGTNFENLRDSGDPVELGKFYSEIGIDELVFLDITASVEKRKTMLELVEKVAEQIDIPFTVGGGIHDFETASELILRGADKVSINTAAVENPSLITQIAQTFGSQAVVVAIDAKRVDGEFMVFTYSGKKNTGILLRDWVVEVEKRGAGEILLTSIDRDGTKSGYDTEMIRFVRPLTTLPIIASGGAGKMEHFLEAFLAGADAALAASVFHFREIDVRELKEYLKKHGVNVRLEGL
# T5: HisF, cyclase subunit of imidazole glycerol phosphate synthase from Thermotoga maritima, wild type, without … (Thermotoga maritima, UniProt Q9X0C6 1-253)
# T5 construct: HisF of Thermotoga maritima, Uniprot ID Q9X0C6; Crystallised as the HisFH-hC84A complex; also called HisF-wt; source: E. coli, expressed separately; cell lysate combined with that of HisH before the NiNTA column, complex purified (NiNTA, SEC)
# T5 sequence: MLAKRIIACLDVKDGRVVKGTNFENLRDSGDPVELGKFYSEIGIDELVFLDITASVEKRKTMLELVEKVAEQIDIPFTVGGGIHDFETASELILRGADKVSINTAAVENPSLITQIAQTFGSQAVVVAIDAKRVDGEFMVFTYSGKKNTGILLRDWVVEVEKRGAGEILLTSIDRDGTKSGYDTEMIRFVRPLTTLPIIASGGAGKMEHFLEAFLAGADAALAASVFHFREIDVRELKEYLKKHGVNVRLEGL
# T6: HisF from Thermotoga maritima, K19A mutant (Thermotoga maritima, UniProt Q9X0C6 1-253, fK19A)
# T6 construct: HisF of Thermotoga maritima, Uniprot ID Q9X0C6; also called fK19A; source: E. coli, purified
# T6 sequence (looked up): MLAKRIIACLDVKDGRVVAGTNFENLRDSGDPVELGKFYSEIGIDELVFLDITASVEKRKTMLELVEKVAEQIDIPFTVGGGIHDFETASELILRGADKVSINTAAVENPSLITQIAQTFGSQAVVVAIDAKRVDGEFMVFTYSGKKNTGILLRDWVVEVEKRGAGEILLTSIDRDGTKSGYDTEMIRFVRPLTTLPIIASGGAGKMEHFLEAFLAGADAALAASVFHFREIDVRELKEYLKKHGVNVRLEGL
# T7: HisF from Thermotoga maritima, V48A mutant (Thermotoga maritima, UniProt Q9X0C6 1-253, fV48A)
# T7 construct: HisF of Thermotoga maritima, Uniprot ID Q9X0C6; also called fV48A; source: E. coli, purified
# T7 sequence (looked up): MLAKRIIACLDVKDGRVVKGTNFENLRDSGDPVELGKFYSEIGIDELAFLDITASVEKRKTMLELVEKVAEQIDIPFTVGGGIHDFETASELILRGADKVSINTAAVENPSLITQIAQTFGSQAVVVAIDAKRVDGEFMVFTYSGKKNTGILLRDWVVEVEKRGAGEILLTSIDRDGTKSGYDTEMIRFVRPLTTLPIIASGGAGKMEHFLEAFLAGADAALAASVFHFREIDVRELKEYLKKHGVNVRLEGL
# T8: HisF from Thermotoga maritima, F23A mutant (Thermotoga maritima, UniProt Q9X0C6 1-253, fF23A)
# T8 construct: HisF of Thermotoga maritima, Uniprot ID Q9X0C6; also called fF23A; source: E. coli, purified
# T8 sequence (looked up): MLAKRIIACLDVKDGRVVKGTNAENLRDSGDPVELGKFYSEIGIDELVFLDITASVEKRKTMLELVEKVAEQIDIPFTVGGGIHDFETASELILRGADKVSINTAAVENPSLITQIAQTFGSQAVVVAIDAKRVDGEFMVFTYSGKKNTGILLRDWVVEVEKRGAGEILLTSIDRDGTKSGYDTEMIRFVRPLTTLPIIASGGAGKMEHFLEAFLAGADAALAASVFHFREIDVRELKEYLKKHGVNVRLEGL
# T9: HisF from Thermotoga maritima, D98E mutant (Thermotoga maritima, UniProt Q9X0C6 1-253, fD98E)
# T9 construct: HisF of Thermotoga maritima, Uniprot ID Q9X0C6; also called fD98E; HisF-D98E; source: E. coli, purified
# T9 sequence (looked up): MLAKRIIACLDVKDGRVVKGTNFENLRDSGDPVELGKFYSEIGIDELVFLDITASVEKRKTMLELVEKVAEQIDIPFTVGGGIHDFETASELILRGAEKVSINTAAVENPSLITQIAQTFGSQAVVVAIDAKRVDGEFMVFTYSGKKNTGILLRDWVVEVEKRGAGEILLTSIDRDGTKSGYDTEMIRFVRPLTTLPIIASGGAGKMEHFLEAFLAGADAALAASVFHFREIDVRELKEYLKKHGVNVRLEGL
# T10: HisF, cyclase subunit of imidazole glycerol phosphate synthase from Thermotoga maritima, wild type (NMR … (Thermotoga maritima, UniProt Q9X0C6 1-253))
# T10 construct: HisF of Thermotoga maritima, Uniprot ID Q9X0C6; Deuterated and 15N labelled where HisF is observed; also called WT HisF; HisF-wt; source: E. coli BL21-CodonPlus (DE3)-RIL or BL21 Gold (DE3), purified (heat shock, NiNTA, TEV digestion, SEC); not shown: His-tag, N-terminal, cleaved
# T10 sequence: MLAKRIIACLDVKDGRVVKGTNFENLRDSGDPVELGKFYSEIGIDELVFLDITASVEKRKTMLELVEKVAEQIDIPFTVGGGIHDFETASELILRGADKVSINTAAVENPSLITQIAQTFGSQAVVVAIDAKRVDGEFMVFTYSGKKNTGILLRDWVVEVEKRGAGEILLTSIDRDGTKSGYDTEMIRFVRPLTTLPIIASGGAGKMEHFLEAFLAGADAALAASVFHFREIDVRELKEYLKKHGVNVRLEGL
# Experiments:
# HisH [1] = biological target: T1, HisH; assay: NMR titration in the presence of ProFAR; assay type: binding; design: HisFH-hC84S complex; with HisF
# HisF = biological target: T2, HisF; assay: X-ray crystal structure at […] Å; NMR titration; glutaminase activation; assay type: binding
# HisH [2] = biological target: T3, HisH; assay: NMR titration (methyl TROSY); assay type: binding; design: WT HisFH complex; with HisF
# HisH [3] = biological target: T4, HisH; assay: X-ray crystal structure at […] Å; assay type: binding
# HisH [4] = biological target: T1, HisH; assay: biochemical
# [5] = biological target: T5, HisF, cyclase subunit of imidazole …; assay: crystal structure; HisFH-hC84A complex at 30 mg/ml in 10 mM Tris-HCl pH 8.0, 100 mM NaCl; hanging drop, 18 °C, 10 mM L-glutamine, 10 mM ProFAR added by soaking; 2.06 Å; three HisFH complexes in the asymmetric unit; conditions: both partners purified
# [6] = biological target: T6, HisF from Thermotoga maritima, K19A …; assay: NMR spectra (TROSY, methyl-TROSY) of the complex reconstituted by SEC; HisF and HisH combined at a 1.3/1 ratio after TEV digestion, free HisF removed on Superdex 75 in NMR buffer (50 mM NaCl, 20 mM HEPES pH 7.3, 1 mM DTT); spectra at 30 °C, 50-150 µM protein; conditions: both partners purified
# [7] = biological target: T7, HisF from Thermotoga maritima, V48A …; assay: as above; conditions: both partners purified
# [8] = biological target: T8, HisF from Thermotoga maritima, F23A …; assay: as above; conditions: both partners purified
# [9] = biological target: T9, HisF from Thermotoga maritima, D98E …; assay: as above; conditions: both partners purified
# [10] = biological target: T10, HisF, cyclase subunit of imidazole …; assay: as above; conditions: both partners purified
molecule,measurement,setting,value
NC(=O)NC[C@H](N)C(=O)O [Albizziin],NMR titration in the presence of ProFAR,HisH [1],for the HisFH–hC84S mutant the active conformation is clearly visible
NC(=O)c1ncn([C@@H]2O[C@H](COP(=O)(O)O)[C@@H](O)[C@H]2O)c1N=CN[C@@H]1O[C@H](COP(=O)(O)O)[C@@H](O)[C@H]1O [ProFAR],X-ray crystal structure at 2.06 Å; NMR titration; glutaminase activation,HisF,the HisF active site shows unambiguous electron density for a ProFAR molecule
NC(=O)CC[C@H](N)C(=O)O [Gln],Kd,HisH [2],1300 ± 100 µM
same,X-ray crystal structure at 2.06 Å,HisH [3],The asymmetric unit contains three HisFH complexes
same,Kd,HisH [4],1700 ± 100 µM
"HisH, glutaminase subunit of imidazole glycerol phosphate synthase from Thermotoga maritima, C84A mutant (crystallisation construct) (enzyme, HisH of Thermotoga maritima, Uniprot ID Q9X0C8; also called hC84A; HisH-C84A; source: E. coli, expressed separately; cell lysate combined with that of HisF before the NiNTA column, complex purified (NiNTA, SEC)) MRIGIISVGPGNIMNLYRGVKRASENFEDVSIELVESPRNDLYDLLFIPGVGHFGEGMRRLRENDLIDFVRKHVEDERYVVGVALGMQLLFEESEEAPGVKGLSLIEGNVVKLRSRRLPHMGWNEVIFKDTFPNGYYYFVHTYRAVCEEEHVLGTTEYDGEIFPSAVRKGRILGFQFHPEKSSKIGRKLLEKVIECSLSRR",binding result,[5],binds
"HisH, glutaminase subunit of imidazole glycerol phosphate synthase from Thermotoga maritima, C84S mutant (enzyme, UniProt Q9X0C8 1-201, looked up, HisH of Thermotoga maritima, Uniprot ID Q9X0C8; Deuterated, ILMVA methyl labelled or histidine ring-13C2 labelled for NMR; also called hC84S; HisH-C84S; source: E. coli BL21-CodonPlus (DE3)-RIL, purified (heat shock, NiNTA, TEV digestion, SEC); not shown: His-tag, N-terminal, cleaved) MRIGIISVGPGNIMNLYRGVKRASENFEDVSIELVESPRNDLYDLLFIPGVGHFGEGMRRLRENDLIDFVRKHVEDERYVVGVSLGMQLLFEESEEAPGVKGLSLIEGNVVKLRSRRLPHMGWNEVIFKDTFPNGYYYFVHTYRAVCEEEHVLGTTEYDGEIFPSAVRKGRILGFQFHPEKSSKIGRKLLEKVIECSLSRR",binding result,[6],binds
same,binding result,[7],binds
same,binding result,[8],binds
same,binding result,[9],binds
same,binding result,[10],binds
"HisH from Thermotoga maritima, C84A mutant (NMR samples) (enzyme, UniProt Q9X0C8 1-201, looked up, HisH of Thermotoga maritima, Uniprot ID Q9X0C8; probably the same construct as m2, kept apart because the state of the tag is told only for the labelled proteins; also called hC84A; source: E. coli BL21-CodonPlus (DE3)-RIL, purified (heat shock, NiNTA, TEV digestion, SEC); not shown: His-tag, N-terminal, cleaved) MRIGIISVGPGNIMNLYRGVKRASENFEDVSIELVESPRNDLYDLLFIPGVGHFGEGMRRLRENDLIDFVRKHVEDERYVVGVALGMQLLFEESEEAPGVKGLSLIEGNVVKLRSRRLPHMGWNEVIFKDTFPNGYYYFVHTYRAVCEEEHVLGTTEYDGEIFPSAVRKGRILGFQFHPEKSSKIGRKLLEKVIECSLSRR",binding result,[10],binds
